The text below walks through data of patent publication US20100160234A1.

In this assay the target is Native eIF4E of High Five (Trichoplusia ni) insect cells (Trichoplusia ni). Nature of the assay: cell-based or functional assay.

B1: his-tagged PVY VPg protein (protein, not shown: small tags and cut ends)
chain: GKNKSKRIQALKFRHARDKRAGFEIDNNDDTIEEFFGSAYRKKGKGKGTTVGMGKSSRRFINMYGFDPTEYSFIQFVDPLTGAQIEENVYADIRDIQERFSEVRKKMVENDDIEMQALGSNTTIHAYFRKDWSDKALKIDLMPHNPLKVCDKTNGIAKFPERELELRQTGPAVEVDVKDIPAQEVEHE
Molecule B1 showed an eIF4E in cytoplasm (%), 12 h p.i., cell fractionation, Western blot and densitometry of 53.5%; an eIF4E in cytoplasm (%), 24 h p.i., cell fractionation, Western blot and densitometry of 81.3%; an eIF4E in cytoplasm (%), 36 h p.i., cell fractionation, Western blot and densitometry of 83.3%; an eIF4E in cytoplasm (%), 48 h p.i., cell fractionation, Western blot and densitometry of 74.1%. For the same molecule, the eIF4E in nucleus (%), 12 h p.i., cell fractionation, Western blot and densitometry was 46.5%; the eIF4E in nucleus (%), 24 h p.i., cell fractionation, Western blot and densitometry turned out to be 18.7%; the eIF4E in nucleus (%), 36 h p.i., cell fractionation, Western blot and densitometry was 16.7%; the eIF4E in nucleus (%), 48 h p.i., cell fractionation, Western blot and densitometry amounted to 25.9%.
